From the nanobody polyreactivity screen of Harvey et al. (2022)

Test: yeast display, Sf9 membrane polyspecificity reagent, FACS + sequencing; frameworks hold sequencing errors
Method in brief: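 Galactose-induced (36–48 hours) yeast carrying a synthetic nanobody display library were exposed to 10% biotinylated, detergent-solubilized Sf9 membrane reagent at 4 °C for 1 hour. FACS followed streptavidin microbead enrichment, using low and high (top ~1%) gates for expression (anti-HA) and reagent binding (streptavidin). Colony PCR, MiSeq 2 × 250 sequencing and CDR-length filtering followed. Labels for polyreactivity reflect the gate of origin.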

Sequence | polyreactivity (PSR sort gate)
QDQLVQSGGGIVQAGGSLRLSCAASGSTFILYAMGWYRQAPGKESELVAAISTSGGSTYYADSVKGRVTISRDNAKNTVYFHMNSLKPDDTAVYYCIAGLSVTHGTSIPFRKYEYWGQGTQVNVSS | low polyreactivity
QVQLVESGGGLVQAGGSLRLSCAASGSIFSFYTMGWYRQAPGKERELVAAINWSGSRTYYADSVKGRFTISRDNAKKTVYLQMNSLNPEDTAVYYCAARKYYSRAYDYWGQGTQVTVSS | high polyreactivity
QVQLVESGGGLVQAGGSLRLSCAASGRTFHAYVMGWYRQAPGKERELVADISSGGDTYADSVKGRFTISRDNAKNTVYLQMNSLKPEDTAVYYCAVDLIQDESGYWGQGTQVTVSS | low polyreactivity
QVLLVESGPGLVQAGGSLRLSCAASGSTLYYYAMGWYRQAPGKERELVAAITWSGDSTYYADSVKGRFTISRYNAKNTVYLQMNSLIPEDTAVYYCASEVESYDQYYTYDYWGQGTQVTVSS | high polyreactivity
QVQLVESGGGLVQAGGILRLSCAASGFIFVRYAMGWYRQAPGKERELVAAISWRGGSTYYADSVKGRFTISRDNAKNTVYLQMNSLKPEDTAVFYCSAVTWVHRYSRFHPFVAFDYWGQGTQVTVSS | high polyreactivity
QVQLVESGGGLVQAGGSLRLSWAASGSIFDENAMGLSRQAPGKERELVAAISRSTGSTYYADSVKGRFTISRDKAKNTVYVQMNSLKPEDTAVYYCNALTYLRGPPWYTLDYWGQGTQVTVSS | low polyreactivity
QVQLVESGGGLVQAGGSLRLSCAASGSTFVYNAMGWYRQAPGKERELVAAISRRGTSTYYADSVKGRFTISRDNAKNTVYLQMNSLKPEDTAVYYCAASQLSRSGQYRRDYWGQGTQVTVSS | high polyreactivity
QVQLVESGGGLVQAGGSHRLSCAASGTTIDYYAMGWYRQAPGKERELVAAISWSGGSTYYADSVKGRFTFSRDNAKNTVYLQMNSLKPEDTAVYYCAADSAFYTGSDYGWSDYDYWGQGTQVTVSS | low polyreactivity
QVQLVESGGGLVQAGGSLRISCAASGRTSHAYAMGWYRQAPGKERELVAAITRVTSTYYADSVKGRFTISRDNAKNTVYLQMNSLKPEDTAVYYCAAGKGYYRSDYWGQGTQVTVSS | low polyreactivity
QVQLQESGGGLVQAGGSLRLSCAASGTISYAPHMGWYRQAPGKERELVAGITIGGTTYYADSVKGRFTISRDNANNTVYLQMNSLSPGDTAVYYCAAHSEQYTPFYYWGQGTQVTVSS | low polyreactivity
QVQLVESGGGIVQAGGSLRLSCAASGRIFQRYTMGWYRQAPGKEREFVAAITYSGGSTHYADSVKGRFTISRDNAKNTVYLQMNSLKPEDTAVYYCNADRYYGRGYGYWGQGTQVTVSS | low polyreactivity
QVQLVESGGGLVQAGGSLRLSCAASGRIFGHYAMGWYRQAPGKERELVAAISRSGTRTYYADSVKGRFTISRDNAKNTVYLQMNSLKPEDTAVYYCAAYTYKGIYYYWGQGTQVTVSS | high polyreactivity
QVQLVESGGGLVQAGGSLRLSCAASGLIFGYNAMGWYRQAPGKEREFVAGISVIDGRTYYADSVKGRFTISRDNAKNTVYLQMNSLIPEDTAVYYCAADRWYKYYFLTYGYWGQGTQVTVSS | low polyreactivity
QVQLVESGGGLVQAGGSLRLSCAATGRTLPPNAMGSYRQAPGKERELVAGITWSGGSTYYADSVKGRFTISRDNAKNTVYLQMNSLKPEDTAVYYCAASRSFPGYGLYYYWGQGTQVTVSS | low polyreactivity
QVQLQESGGGLVQAGGSLRLSCAASGSISHYIFRGWYRQAPGKEPEFVAGIGYGGTTNYADSVKGRFTISRDNAKNTVYLQMNSLKPEDTAMYYCAAREATEFYLYYWGQGTQVTVIS | low polyreactivity
QVQLEESVGGLVQAGGSLRLTCAASGSIFKTNAIGWYRQAPGKERELVAAIRASGGSTYYADSVKGRFTISRDNAKNSVYLQMNSLKPEDTAVYYCAARYWFKYYWGQGTQVTVSS | low polyreactivity
QVQLVESGGGLVQAGGSLRLSCAASGRTFRYYAMGWYRQAPGKERELVAAITSVGGTYYADSVKGRFTISRDNAKNTVYLQMNSLKPEDTAVYYCAVTSYKYRKYDYWGQGTQVTVSS | high polyreactivity
QVHLVESGGGLVQEGGSLRLSCAASGSIFQYYAMGWYIQAPGKERELVAAISWRSGRTYYADSVKGRFTISRDNAKNTVYLQMNSLKPEDTAVYYCIRGYARDYDYWGQGTQVTVSS | high polyreactivity
QVQLVESGGGLVQAGGSLRLSCAASGSTFYRYVMGWYRQAPGKERELVAAISKSDGSTYYADSVKGRFTISRDNAKNTVYLQMNSLIPEDTAVYYCAADGSKWDWWEYEYWGQGTQVTVSS | high polyreactivity
QVQLVESGAGLVQAGGSLRLSCAASGRNFQYYAMVWYRQAPGKERELVAAISSGGGTYYADSVKGRFTISRDNAKNTVYLQMNSLKPEDTAVYYCAARYVYHRGFDYWGQGTQVTVSS | high polyreactivity
QVQLVESGGGLVQAGGSLRLSCAASGRTFDRYTMGWYRRAPGKERELVATIRSTGSTYYADSVKGRFTISRDNAKNTVYLQMNSLKTEDTAVYYCNRKYRSSLPYGDGYWGQGTQVTVSS | low polyreactivity
QVQHVESGGGLVQAGGSLRLTCAASGFIFVIYAMGWYRTAPGKERELVAAITESGDRTYYADSVKGGFTISRDNAKNTVYLQMNSLKPEDTAVYYCNALLSYGYHAAYGYWGQGTQVTVSS | high polyreactivity

Sequence | polyreactivity (PSR sort gate)
QVQLVESAGGLVQAGGSLRLSCAASGRIFPFYAMGWYRQAPGKERELVAAISWNGGSTFYADSVKGRFTISRDNAKNTVYLQMNSLKPEDTAVYYCNADCRPAYTYDYWGQGTQVTVSS | low polyreactivity
QVQLVESGGGLVQAGGSRSLSCAASGSILWYYAMGWYRQAPGKERELVADITARGVGTYYADSVKGRFTISRDNAKNTVYLQMNSLKPEDTAVYYCNVETYSFYTLYVTYDYWGQGTQVTVSS | low polyreactivity
QVQLVESGGGLVQAGGSLRLSCAASGRIVSVNAMGWYRQAPGKERVLVAAITSGGRTNYADSVKGRFTISRDNAKNTVYLQMNSLNPEDTAVYFCAAPYLKGGEDEYWGQGTQVTVSS | high polyreactivity
QVQLVESGGGLVQAGGSLRLSCAASGFIYERNAMGWYRQAPGKERELVAAISGGGSTNYADSVKGRFTISRDNAKNTVYLQMNSLNPEDTAVYYCAADSWWYPFDYWGQGTQVTVSS | high polyreactivity
QVQLQESGGGLVQAGGSLRLSCAASGNIVDADIMGWYRQAPGKERELVASITDGGSTNYADSVKGRFTISRDNAKNTVYLQMNSLKPVDTAVYNCAAIAYPDIPTYFDYDSEYFYWGQGTQVTVSS | low polyreactivity
QVQLVESGGGLVQAGGSLRLSCAASGRTSRSYTMGWYRQAPGKERELVAAITRGGRTYYADSVKGRFTISRDNAMNTVYLQMNSLKPEDTAVYYCATDRVQSYGYWGQGTQVTVSS | low polyreactivity
QVQLVESGGGLVQAGGSLRVSCDASGFTFFYNAMGRYRQAHGKERELVASISSVGRTNYADSVKGRFRISRDNAKNTVYLQMNSLTPEDTAVYFCAAYRAPATRRRGYYYWGLGTQVTVSS | high polyreactivity
QVQLVESGGGLVQAGGSLRLSCAASGIIFDGNAMGWYRQAPGKERELVAAISSRGSRTYYADSVKGRFTISRDHAKNTVYLQMNSLKPEDTAVYYCNAGYGFRSYGYDPWGQGTQVTVSS | high polyreactivity
QVQLVESGGGLVQAGGSLRLSCAASGFIFLWYAMGWYRQAPGKERELVAAISSGGGRTHYADSVKGRFTISRDNAKNTVYLQMNSLKPEDTAVYYCAAALRGQASRFDYWGQGTKVTVSS | high polyreactivity
QGQLVESGGGLVQAGGSLRLSCAASGSILLYYAMGWYRQAPGKEWELVAAITGGGGTNYADAGKGRFTISRDNAKNTVYLQMNSLIPEDTAVYYCAADPSGQFPYSYYNYDYDYWGQGTQVTVSS | low polyreactivity
QVQLVESGGGLVQAGGSLRLSCAASGFILKYYAMGWYRQAPGKERELVAAISVRGGSTYYADSVKGRFTISRDNAKNTVYLQMNSLKPEDTAVYYCAARHRYGGAFVDYDYWGQGTQVTVSS | high polyreactivity
HVQLVESGGGLVQAGGSLRLSCAASGSIFLHNTMGWYRQAPGKERELVAVISKRGGSTYYADSVKGRFTISRDNAKNTVYLQMNCLKPEDTAVYYCNKTRSAGHPGVDGSPYYYWGQGTQVTVSS | high polyreactivity
QVQLVESGGGLVQAGGSLRLSCAASGSIFHINAMGWYRQAPGKERELVAAISSADRTYYADSVKGRFTISRDNAMNTVYLQMNSLKPEDTAVYYCAAVYYRYPYEYWGQGTQVTVSS | high polyreactivity
QVQLVESGGGLVQPGGSLRLSCAASGSIASYAMGWYRQAPGKERELVAGISWSGGSTYYADSVKGRFTISRDNAKNTVYLQMNSLKPEDTAVYYCNAYSAFVPPTRGYYWGQGTQVTVSS | high polyreactivity
QVQLVESGGGIVQAGGSLRISCAASGSIFFGYAMGWYRPATGKERELVADITVGGGSPFYADSVKGRFTISRDNEKNTVYLQMNSLKPDDTAVYYCADDYYTQWLTRYDYWGQGTQVTLSS | low polyreactivity
QVQLVESGGGLVQAGGSLRLSCAASGFIFSGNAMGWYRQAPGKARELVAAISWSGTSTFYADSVKGRFTISRDNAKNTVYLQMHSLIPEDTAVYYCAAETYYSYWYRPHYDYWGQGTQVTVSS | low polyreactivity
QVQLVESGGGLVQAGGSLRLSCAASGITFGVNAMGGSRQAPGKERELVAAITQRGDSTYYADSVKGRFTISRDTAKNTLDLQMNSLKPEDTAVYYCNADYAWRFPVTYDYWGQGTQVTVSS | low polyreactivity
QVQLVESGGGLVQPGGSLRLSCAASGRIFKRNAMGCYRQAPGKERELVAAITWRGGSTYYADSVKGRFTISRDNAKNTVYLQMKSMKPEDTAVYYCNVGYGGSSDGGYDYWGHGTQVTVSS | high polyreactivity
QVQLVESGGGLVQAGGSHRLSCAATGIIFARNAMGWYRQAPGKERELVAGINGGRTNYADSVKGRFTISRDNAKNTVYLQMNSLKPEDTAVYYCAARLGRVKYDHWGQGTQVTVSS | high polyreactivity
QVQLVESGGGLVQAGGSLRLSCAASGIIFVGNAMGWYRQAPGKERELVASINSGGSTYYADSVKGRFTISRDNAKNTVYLPMNSLKPEDTAVYYCAVEEARYYYDDYDYWGQGTQVTVSS | low polyreactivity
QVQLVESGGGLVQAGGSLRLSCAASGFTFRRYAMGWYRQAPGKERVLVAAITRGSSTYYADSVKGRFTISRDNEKNTVYLQMNSLKPEDTAVYYCAAAGFWSRPSDYWGQGTQVTVSS | low polyreactivity
